Test results as given in patent US20210002624.

Target: Factor X, P00742
Sequence (P00742 whole entry, looked up): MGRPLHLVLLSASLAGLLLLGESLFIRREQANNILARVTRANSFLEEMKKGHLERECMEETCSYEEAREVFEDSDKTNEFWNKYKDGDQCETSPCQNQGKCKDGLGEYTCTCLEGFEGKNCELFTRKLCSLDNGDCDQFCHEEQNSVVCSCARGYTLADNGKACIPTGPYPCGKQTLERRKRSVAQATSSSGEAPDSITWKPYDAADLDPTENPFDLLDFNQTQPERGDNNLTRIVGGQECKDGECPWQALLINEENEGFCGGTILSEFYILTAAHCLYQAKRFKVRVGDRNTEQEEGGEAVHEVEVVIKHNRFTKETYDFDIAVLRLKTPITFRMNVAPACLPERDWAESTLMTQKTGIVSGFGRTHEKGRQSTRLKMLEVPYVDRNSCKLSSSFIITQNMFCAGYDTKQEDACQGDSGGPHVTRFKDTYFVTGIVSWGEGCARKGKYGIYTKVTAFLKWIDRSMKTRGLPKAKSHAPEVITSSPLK

B1: Desialylated wild-type Factor VII (dWT VIIa) (protein)
chain 1: ANAFLEELRPGSLERECKEEQCSFEEAREIFKDAERTKLFWISYSDGDQCASSPCQNGGSCKDQLQSYICFCLPAFEGRNCETHKDDQLICVNENGGCEQYCSDHTGTKRSCRCHEGYSLLADGVSCTPTVEYPCGKIPILEKRNASKPQGR
chain 2: IVGGKVCPKGECPWQVLLLVNGAQLCGGTLINTIWVVSAAHCFDKIKNWRNLIAVLGEHDLSEHDGDEQSRRVAQVIIPSTYVPGTTNHDIALLRLHQPVVLTDHVVPLCLPERTFSERTLAFVRFSLVSGWGQLLDRGATALELMVLNVPRLMTQDCLQQSRKVGDSPNITEYMFCAGYSDGSKDSCKGDSGGPHATHYRGTWYLTGIVSWGQGCATVGHFGVYTRVSQYIEWLQKLMRSEPRPGVLLRAPFP
activation of Factor X (Michaelis Menten kinetics; Factor X titrated in the presence of sTF-Factor VII complexes, 0.5 nM Factor VII, 125 nM sTF), relative to wild-type Factor VII (F7): approximately 2-fold
